Columns and labels:
[1] = tested on: MC38 colorectal tumors; assay: orthotopic syngeneic MC38 colorectal cancer model, MRI; type: in vivo, mouse; conditions: 20 mg/kg i.p. every 72 hours, 5 cycles, versus PBS
Experimental: […] mice were anesthetized by isofluorane inhalation, and the hepatic portal vein was accessed by median laparotomy (from xiphoid 4 cm caudally). Mice were injected with 1 million murine MC38 colorectal cancer cells. The origin of these cell is described in Science 19 Sep. 1986. MC-38 tumors were allowed to form for 7 days before treatment. Mice were treated with either PBS or NI-206.82C2 (20 mg/kg by intraperitoneal injection) every 72 hours for 5 treatment cycles, before being anesthetized by isofluourane inhalation. Small animal MRI imaging was performed using a Bruker 4.7 Tesla MRI to aquire images of liver metastases. Tumor images were analyzed on Myrian Software (Intrasense) to quantify tumor metastases and cumulative tumor diameter overall tumor burden.

[2] = tested on: 4T1 breast tumor; conditions: mouse, in vivo
Experimental: A murine cancer model was generated by the injection of 100′000 4T1 cultured breast tumor cells orthotopically into the 2nd left breast of Balb/c immunocompetent mice and allowed to grow for 7 days. Prior to in vivo imaging, the animals were shaved and de-epilated to remove fur for minimal absorbance and scattering of the incident optical light. In-vivo imaging was performed with the Maestro 500 imaging system (Cambridge Research Inc, Woburn, USA). For A680-82C2 detection, a band pass filter from 615 nm-665 nm and a highpass filter over 700 nm were used for excitation and emission light respectively, and fluorescence was detected by a CCD camera (cooled to 11° C.). A series of images were acquired at different wavelengths and then subjected to spectral unmixing (deconvolution of collected optical spectra; this enabled the unmixing of the Alexa680 fluorescence pattern from tissue auto-fluorescence and other spectral contributions).
Whole mice images were acquired at the following timepoints: before antibody injection, immediately after antibody injection, 6 h, 24 h, 48 h, and 6 d after antibody injection.

[3] = tested on: MOPC315.BM multiple myeloma cells and tumor stroma; assay: immunofluorescence on murine multiple myeloma bone tissue; parameters: species or system mouse; conditions: Cy5 labelled antibody, bone sections
Experimental: BALB/c mice were injected with 2×10^6 of the murine multiple myeloma cell line […] intravenously. BALB/c mice were injected with a vehicle-only control. Bone tissue was harvested and fixed in 4% PFA, decalcified in 10% EDTA (pH 7.4), embedded in paraffin before being sectioned (4 μm) and rehydrated. Then, CD138 mAb (Clone 281-2, BD Pharmingen) and Cy5 labelled NI-206.82C2 were used to identify MOPC315.BM.Luc cell infiltration, and NI-206.82C2 binding to these cells and surrounding stromal cells in the tissue sections. Stained tissue sections were then imaged using a fluorescent microscope (FIG. 13).

[4] = tested on: CT-26 syngeneic liver metastasis; assay: immunofluorescence on murine CT-26 colorectal cancer tissue sections; parameters: species or system mouse; conditions: Cy5 labelled antibody, 10 μg/mL
Experimental: NI-206.82C2 was prelabelled with Cyanine 5 antibody labeling kit (Innova Biosciences, 342-0010), and sufficient antibody labelling was validated with a photospectrometer. Cryosections of mouse livers containing syngeneic CT-26 liver metastasis were allowed to dry for 30 min at room temperature the fixed for 10 min in 4% formalin in PBS. Slides were then washed 3 times for 5 minutes in PBS and blocked for 1 hr at room temperature with 5% bovine serum albumin in PBS.
The slides were then incubated overnight at 4° C. with staining solution containing DAPI at 0.5 μg/mL, and Alexa 547 phalloidin (Invitrogen) according to the manufacturer's instructions, and either Cy5 labelled NI-206.82C2 or a Cy5 labelled isotype-matched control antibody 3A1 at a concentration of 10 μg/mL, in blocking solution with 0.5% Triton X100. Slides were then washed 3 times in PBS, mounted in Lisbeth's mounting medium, and imaged with an SP8 confocal microscope (Leica Microsystems).

[5] = target: T1, FAP in human plasma (Homo sapiens, UniProt Q12884); assay: immunoprecipitation of FAP from human plasma, α2AP-AMC cleavage; type: biochemical; conditions: compared to plasma before immunoprecipitation
T1 construct: from tissue; host or cells: human blood plasma
T1 sequence (Q12884 24-760 limits assumed): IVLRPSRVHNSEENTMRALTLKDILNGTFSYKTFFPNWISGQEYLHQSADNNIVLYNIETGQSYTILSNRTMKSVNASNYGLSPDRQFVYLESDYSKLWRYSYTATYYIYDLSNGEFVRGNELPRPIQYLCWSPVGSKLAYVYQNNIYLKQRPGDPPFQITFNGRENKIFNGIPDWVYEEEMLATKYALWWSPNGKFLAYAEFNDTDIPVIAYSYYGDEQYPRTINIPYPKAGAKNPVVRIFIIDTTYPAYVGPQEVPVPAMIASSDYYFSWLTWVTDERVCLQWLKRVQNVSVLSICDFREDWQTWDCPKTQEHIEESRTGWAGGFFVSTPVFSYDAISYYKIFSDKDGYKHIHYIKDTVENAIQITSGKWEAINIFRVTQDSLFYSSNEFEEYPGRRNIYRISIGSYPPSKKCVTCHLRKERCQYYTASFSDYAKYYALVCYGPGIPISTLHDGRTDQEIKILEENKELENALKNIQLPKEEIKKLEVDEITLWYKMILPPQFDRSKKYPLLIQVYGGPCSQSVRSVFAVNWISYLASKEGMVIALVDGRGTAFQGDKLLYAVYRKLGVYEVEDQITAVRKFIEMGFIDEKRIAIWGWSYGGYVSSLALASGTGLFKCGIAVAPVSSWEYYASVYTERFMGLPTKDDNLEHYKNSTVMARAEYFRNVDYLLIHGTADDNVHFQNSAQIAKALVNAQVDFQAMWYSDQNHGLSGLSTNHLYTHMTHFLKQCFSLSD
Experimental: 100 μL of PureProteome G Magnetic Beads (Millipore LSKMAGG02) were suspended in 500 μL of 25 mM TRIS, 0.15M NaCl, and 0.1% Tween 20. Human plasma was diluted 1:5 in PBS to an end volume of 125 μL, separated into four tubes, and incubated for 30 min at RT with rotation. Beads were then collected with a magnetic stand, and the pre-cleared supernatant was transferred to a new tube containing magnetic beads coated with 82C2, 43A11, or 3A1. Antibody-conjugated beads were incubated with the plasma dilution overnight at 4° C. while rotating. Beads were then collected with a magnetic stand and the supernatant was removed of analysis of α2AP-AMC cleavage activity. To determine α2AP-AMC activity in the supernatants, a half area black 96 well plate was blocked with sterile filtered 5% BSA at 37° C. for 1 h. Then 40 μL of PBS was added to all the wells, 5 μL of the supernatant solutions to the appropriate wells, and 5 μL of α2AP-AMC solution in methanol was added for a final assay concentration of 10 μM. The fluorescence intensity (cleaved AMC) was measured at 360 nm excitation and 460 nm emission every 3 min over a total time of 30 min and the reaction velocity was calculated using Graphpad Prism 6 software.

[6] = tested on: human blood plasma clotting; assay: rotational thromboelastometry (ROTEM, NATEM) of human blood plasma
Experimental: Two batches of peripheral blood were taken from a single healthy subject in sodium citrate tubes and platelet-free blood plasma was prepared by centrifugation. Blood plasma from each tube was pooled and immediately aliquoted for storage at −80° C. The plasma has an FAP level of 130 ng/ml by ELISA. Plasma samples were treated with NI-206.82C2 (n=3) against FAP or 43A11 control (n=3) diluted in sterile saline and added to fresh fast thawed plasma such that the final concentration of antibody in the sample was 0.000667 nM, 0.00667 nM, 0.0667 nM, 0.667 nM 6.667 nM of plasma. Following 1 hr incubation with the antibody at 37° C., NATEM analysis was performed according to the manufacturer's instructions by using STAR-TEM reagent to observe the native blood clotting process after an incubation time with the antibodies of 1 h at 37° C. with the antibody before starting measurement. Statistical analysis was performed using a two-way ANOVA (*p<0.05, ** p<0.01, *** p<0.005, **** p<0.001).

[7] = increasing antibody concentrations

B1: NI-206.82C2: human-derived recombinant anti-FAP antibody; VH SEQ ID NO: 2 or 4 (PIMC), VL SEQ ID NO: 6 (antibody, V domains shown)
VH: QVQLQQSGPGLVKPSQTLSLTCAISGDSVSSNSVTWNWIRQSPSRGLEWLGRTYYRSKWYNDYAVSVKGRITINPDTSKNQFYLQLKSVTPEDAAVYYCARDSSILYGDYWGQGTLVTVSS
VL: QAVLTQPSSLSASPGASASLTCTLPSGINVGTYRIFWFQQKPGSPPQYLLSYKSDSDNHQGSGVPSRFSGSKDASANAGILLISGLQSEDEADYYCMIWHSSAWVFGGGTKLTVL
For B1, the cumulative tumor diameter [1] was “reduced”, the number of metastases [1] was “reduced” and the “antibody concentration after 6 d post antibody injection” value [2] was “declines to almost zero”. For the same molecule, the “binding in the syngeneic MOPC315.BM mouse model” value [3] was “binds to multiple myeloma cells and tumor stroma”, the “staining of murine CT-26 liver metastasis sections” value [4] was “found around the perimeter” and the “rate of α2AP-AMC cleavage in plasma after immunoprecipitation” value [5] was “significantly reduces”. The clot formation time ([6]; 0.000667-6.667 nM antibody) was “dose dependent prolongation”, the clot rigidity [6, 7] was “reduces” and the maximum clot elasticity [6, 7] was “decreases”. For the same molecule, the maximum clotting angle [6, 7] was “reduces”.
